Values of other authors in patent publication US20140179681A1, “METHODS AND COMPOSITIONS OF TARGETED DRUG DEVELOPMENT” (priority 2010, published 2014).

Molecular target: T1, EGF binding site (Rattus norvegicus, UniProt G3V6K6)
T1 construct: Receptor source was rat liver membranes; tissue NovaScreen BioSciences; host or cells: rat liver membranes
Settings: radioligand of the inhibitor assays; rat liver membranes; read-out: KD (binding affinity)

B1: [^125I]EGF: "The radioligand was [^125I]EGF ([…]) at a final ligand concentration of 0.36 nM" (protein, UniProt P01133 23-1207, looked up)
Pro-epidermal growth factor: PQHWSCPEGTLAGNGNSTCVGPAPFLIFSHGNSIFRIDTEGTNYEQLVVDAGVSVIMDFHYNEKRIYWVDLERQLLQRVFLNGSRQERVCNIEKNVSGMAINWINEEVIWSNQQEGIITVTDMKGNNSHILLSALKYPANVAVDPVERFIFWSSEVAGSLYRADLDGVGVKALLETSEKITAVSLDVLDKRLFWIQYNREGSNSLICSCDYDGGSVHISKHPTQHNLFAMSLFGDRIFYSTWKMKTIWIANKHTGKDMVRINLHSSFVPLGELKVVHPLAQPKAEDDTWEPEQKLCKLRKGNCSSTVCGQDLQSHLCMCAEGYALSRDRKYCEDVNECAFWNHGCTLGCKNTPGSYYCTCPVGFVLLPDGKRCHQLVSCPRNVSECSHDCVLTSEGPLCFCPEGSVLERDGKTCSGCSSPDNGGCSQLCVPLSPVSWECDCFPGYDLQLDEKSCAASGPQPFLLFANSQDIRHMHFDGTDYGTLLSQQMGMVYALDHDPVENKIYFAHTALKWIERANMDGSQRERLIEEGVDVPEGLAVDWIGRRFYWTDRGKSLIGRSDLNGKRSKIITKENISQPRGIAVHPMAKRLFWTDTGINPRIESSSLQGLGRLVIASSDLIWPSGITIDFLTDKLYWCDAKQSVIEMANLDGSKRRRLTQNDVGHPFAVAVFEDYVWFSDWAMPSVMRVNKRTGKDRVRLQGSMLKPSSLVVVHPLAKPGADPCLYQNGGCEHICKKRLGTAWCSCREGFMKASDGKTCLALDGHQLLAGGEVDLKNQVTPLDILSKTRVSEDNITESQHMLVAEIMVSDQDDCAPVGCSMYARCISEGEDATCQCLKGFAGDGKLCSDIDECEMGVPVCPPASSKCINTEGGYVCRCSEGYQGDGIHCLDIDECQLGEHSCGENASCTNTEGGYTCMCAGRLSEPGLICPDSTPPPHLREDDHHYSVRNSDSECPLSHDGYCLHDGVCMYIEALDKYACNCVVGYIGERCQYRDLKWWELRHAGHGQQQKVIVVAVCVVVLVMLLLLSLWGAHYYRTQKLLSKNPKNPYEESSRDVRSRRPADTEDGMSSCPQPWFVVIKEHQDLKNGGQPVAGEDGQAADGSMQPTSWRQEPQLCGMGTEQGCWIPVSSDKGSCPQVMERSFHMPSYGTQTLEGGVEKPHSLLSANPLWQQRALDPPHQMELTQ
modifications: Pro-epidermal growth factor 125I label
Kd: 1.04 nM
